Assay results reported in patent US20150258217A1, “Methods of Synthesizing and Using Peg-Like Fluorochromes” (THE GENERAL HOSPITAL CORPORATION, priority 2012, published 2015).

Legend:
[1] = system: HT-29 tumor; assay type: in vivo, mouse
Excerpt: (§1) A Kodak FX multispectral imaging system was used (Carestream Molecular Imaging, Rochester, N.Y.). Excitation at multiple wavelengths (620, 650, 690, 710, 720, 730, 750 and 760 nm) with the emission at 830 nm was setup for IR-783 spectrum; Excitation at multiple wavelengths (420, 440, 460, 480, 510, 520, 530, and 540 nm) with the emission at 600 nm was setup for Cy3 spectrum; Excitation at multiple wavelengths (450, 470, 510, 520, 530, 540, 550, 570, and 590 nm) with the emission at 700 nm was setup for mCherry; with manufacturer's software to separate (unmix) the IR-783 spectrum, Cy3 spectrum, or mCherry spectrum from skin autofluorescence and chlorophyll fluorescence from food. X-ray images were taken after fluorescence images. Animals were anesthetized with 2% isoflurane with O2 flow (2 I/min) during imaging.
Female nude mice (25-30 g; 6-8 weeks old; nu/nu) were anesthetized with 2% isoflurane/O2. HT-29 or mCherry-HT-29 cells were detached, pelleted and 200 μl of cell suspension containing 10^6 cells in Matrigel (BD Bioscience) was injected subcutaneously into right and left shoulders. Tumors were allowed to grow 5-7 days before experiments.
The imaging was performed by Triumph II multimodality imaging system (Gamma Medica Ideas, LLC) comprising XSPECT with four CZT (Cadmium Zink Telluride) detectors and X-O CT with CMOS detector. SPECT data of the ^111In-labeled compound was acquired for 60 minutes using 5-pinhole collimators and processed with 3D-OSEM algorithm using 4 subsets and 5 iterations. 3-dimensional CT data was processed with modified Feldkamp software. […] Animals were under isoflurane anesthesia (1.5%) with O2 flow (1.5 l/min) and kept warm during the imaging with a heated animal bed.
150 μl of ^111In-labeled PN(783)10 (400 μCi, ˜2 nmole) were injected to tumor-bearing animals by tail vein (IV). 24 hours or 48 hours later, animals were sacrificed, and tumors, blood, liver, spleen, stomach, kidneys, small intestine, lung, heart, tail, fat, and muscle, were collected. Radioactivity was measured with Perkin Elmer, Wizard2 2480 gamma counter.

[2] = PN and peptide size (volume, diameter) by FPLC gel filtration (Superdex 200, globular protein standards); assay type: physicochemical; details: for Volume FPLC (diameter) / Volume FPLC: Table 5; for Volume FPLC (diameter): converted from globular protein equivalent MW; for Volume FPLC: globular protein equivalent molecular weight
Outline: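 Superdex 200 size exclusion in 0.05 M sodium phosphate, 0.15 M NaCl, 0.1% Tween, pH 7.2 at 0.8 ml/min, calibrated with globular protein standards via Kav. Apparent globular-equivalent molecular weight converted to diameter using radius (nm)=0.066M^1/3.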

[3] = mouse, in vivo
Method: At two hours post injection, agent is in the blood and interstitium. By 24 hours post injection, tumors are becoming apparent as agent is being cleared. At 48 hours, labeling is highly tumor selective. […] By surface fluorescence, as with SPECT, labeling is highly tumor selective at 48 hours. Biodistribution as organ radioactivity concentrations FIG. 26(c) and total organ radioactivity FIG. 26(d) were obtained by dissection and ^111In counting at 24 hours and 48 hours post injection. Even at 48 hours post injection some 7.5% of injected dose is in the blood, with less than 5% in liver, even though the diameter of PN(783)10.0 exceeds that of albumin (6.7 nm). Data are means and standard deviations. […] By 72 hours, some 17% of injected dose was retained, approximately half of which was still in the blood based on FIG. 26d.

[4] = Blood half-life from serum fluorescence after tail injection; assay type: in vivo; details: mouse, IV; single decay constant fit
Method: Using these procedures and PEG's of different molecular weights, PEG-like NIR fluorochromes of different molecular weights, volumes and pharmacokinetics were synthesized, with results summarized in Table 3B. Blood half-lives were determined by tail injection into mice and measuring serum fluorescence as a function of time. Data (fluorescence versus time) were fit to a single decay constant equation to yield blood half-lives. Human pharmacokinetics will be far slower than that of mice.

[5] = Whole animal surface fluorescence after IV injection (elimination); assay type: in vivo, mouse; details: bladder at 20 minutes, vs (DOTA)Lys-Cys(IR-783) peptide
Excerpt: as §1

## (DOTA)Lys(PEG30K)-Cys(IR-783) [PN(783)10.0]
[1]; HT29 tumor, 48 hours
  tumor retention (EPR) by SPECT and surface fluorescence: retained in the tumor
[1]; mouse, in vivo
  injected dose in the blood: ~7.5%
  injected dose in the liver: less than 5%
[2]
  Volume FPLC (diameter): 10.0 nm
  Volume FPLC: 435.4 kDa
[3]
  injected dose retained (whole animal): ~17%

## (DOTA)Lys(PEG5K)-Cys(IR-783) [PN(783)4.3]
[4]
  Serum half-life: 13.1 min
[2]; 5 kDa PEG vs non-PEGylated peptide, (4.3/1.1)
  PEG-based expansion of volume: 59 fold
[2]; FPLC gel filtration
  diameter: 4.3 nm
[2]; Table 3B, dipeptides
  Molecular Volume FPLC: 35.2 kDa
[2]
  Volume FPLC (diameter): 4.3 nm
  Volume FPLC: 35.2 kDa
[5]
  fluorochrome elimination after IV injection: enhanced fluorochrome elimination
